Key:
[1] = target: Mcm2-7^6N-650 in complex with Cdt1 labeled with DyLight 650 (Mcm2-7^6N-650-Cdt1^C-650) (S. cerevisiae) (UniProt P29469)
[2] = target: Mcm2-7 helicase labeled at the N terminus of Mcm6 with DyLight 650 (Mcm2-7^6N-650), used as Mcm2-7-Cdt1 (S. cerevisiae) (UniProt P29469); experiment: FRET or BRET; single-molecule FRET with colocalisation (CoSMoS), Orc6-tether assay: donor DyLight 550 on Orc6 of ORC, acceptor DyLight 650 at the N terminus of Mcm6 of Mcm2-7; origin DNA attached to the slide; 0.5 to 1 nM ORC, 3 to 10 nM Cdc6, 10 to 15 nM Mcm2-7-Cdt1; 25 mM HEPES-KOH pH 7.6, 300 mM potassium glutamate, 5 mM Mg(OAc)2, 3 mM ATP; only events with ORC and Mcm2-7 both on DNA for at least five frames; the high E_FRET state is read as the Orc6N-Mcm2-7N (tether) interaction
[3] = target: Mcm2-7^6N-650 in complex with Cdt1 labeled with DyLight 650 (Mcm2-7^6N-650-Cdt1^C-650) (S. cerevisiae) (UniProt P29469); remark: listed apart in the source
[4] = target: Mcm2-7^6N-650 in complex with Cdt1 labeled with DyLight 650 (Mcm2-7^6N-650-Cdt1^C-650) (S. cerevisiae) (UniProt P29469); remark: listed apart in the source
[5] = target: Mcm2-7^6N-650 in complex with Cdt1 labeled with DyLight 650 (Mcm2-7^6N-650-Cdt1^C-650) (S. cerevisiae) (UniProt P29469); experiment: FRET or BRET; single-molecule FRET with colocalisation (CoSMoS), Orc6-tether assay: donor DyLight 550 on Orc6 of ORC, acceptor DyLight 650 at the N terminus of Mcm6 of Mcm2-7; origin DNA attached to the slide; 0.5 to 1 nM ORC, 3 to 10 nM Cdc6, 10 to 15 nM Mcm2-7-Cdt1; 25 mM HEPES-KOH pH 7.6, 300 mM potassium glutamate, 5 mM Mg(OAc)2, 3 mM ATP; only events with ORC and Mcm2-7 both on DNA for at least five frames; the high E_FRET state is read as the Orc6N-Mcm2-7N (tether) interaction

## ORC that lacks the Orc6 N-terminal domain, labeled with DyLight 550 (ORC^6ΔN-550) (from UniProt P54784 1-914; P32833 1-620; P54790 1-616; P54791 1-529; P50874 1-479; P38826 1-435) (complex)
[1]
  ORC molecules released within 7.8 s (three frames) after Cdt1 release: 80%
  ORC molecules retained for more than 100 s on DNA after Cdt1 release (of 106 molecules): 1
[2]
  percent of stably recruited Mcm2-7 that reached the high E FRET (tether) state: 82.3%

## ORC that lacks Orc6N and has the Orc6 lnk1 region scrambled, labeled with DyLight 550 (ORC^6ΔN-lnk1scr-550) (from UniProt P54784 1-914; P32833 1-620; P54790 1-616; P54791 1-529; P50874 1-479; P38826 1-435) (complex)
[1]
  ORC molecules released within 7.8 s (three frames) after Cdt1 release: 83%
  ORC molecules retained for more than 100 s on DNA after Cdt1 release (of 106 molecules): 0
[2]
  percent of stably recruited Mcm2-7 that reached the high E FRET (tether) state: 4.4%

## CDK-phosphorylated ORC^6N-550 (Orc2 and Orc6 phosphorylated), P54784 1-914; P32833 1-620; P54790 1-616; P54791 1-529; P50874 1-479; P38826 1-435
[2]
  lifetime of the tether interaction, fold shorter than unphosphorylated ORC: 2.5 fold
  median time of tether formation, fold of unphosphorylated ORC: > 2 fold
  percent of recruited Mcm2-7 that exhibited a stable high E FRET (tether) state: 53.9%

## origin recognition complex labeled at the Orc6 N-terminal region with DyLight 550 (ORC^6N-550), P54784 1-914; P32833 1-620; P54790 1-616; P54791 1-529; P50874 1-479; P38826 1-435
[1]
  ORC molecules released within 7.8 s (three frames) after Cdt1 release: 39%
  ORC molecules retained for more than 100 s on DNA after Cdt1 release: 24%
[3]
  ORC molecules released within one video frame (~2.6 s) after Cdt1 release, tether interaction present as Cdt1 was released: 25%
  ORC molecules released within one video frame (~2.6 s) after Cdt1 release, tether not present as Cdt1 is released (of 33 molecules): 16
[4]
  median time of ORC retention after Cdt1 release, Orc6 tether interaction absent at the time of Cdt1 release: 3.8 s
  median time of ORC retention after Cdt1 release, Orc6 tether interaction present at the time of Cdt1 release: 23.8 s
[2]
  median duration of the Orc6N-Mcm2-7N interaction: 26.4 s
  median time to form the high E FRET state after Mcm2-7-Cdt1 recruitment: 7.2 s
  percent of stably recruited Mcm2-7 that reached the high E FRET (tether) state: 91.5%
[5]
  recruitment events in which a high E FRET (tether) state formed (of 162 events): 152

## ORC with the Orc6 lnk1 region (aa 120 to 185) scrambled, labeled with DyLight 550 (ORC^6-lnk1scr-550) (from UniProt P54784 1-914; P32833 1-620; P54790 1-616; P54791 1-529; P50874 1-479; P38826 1-435) (complex)
[1]
  ORC molecules released after 7.8 s after Cdt1 release: 63%
  ORC molecules retained for longer than 100 s after Cdt1 release: 13%
[2]
  median lifetime of the tether interaction: 9.7 s
  median time to form the tether interaction, fold of WT ORC: 2 fold

Reference: article PMC12541460
